PMC11027793 (Molecular cell, 2022)
Read-outs that look alike come from different tables or passages of the source. Each block holds one binder with its values, some of them ahead of it. Where no end group is shown, it is not given here. MBP = not defined here

B5: GST-Mios Ring (785–875) (domain or fragment, UniProt Q9NXC5 785-875, looked up)
chain: CALCLINMGTPVSSCPGGTKSDEKVDLSKDKKLAQFNNWFTWCHNCRHGGHAGHMLSWFRDHAECPVSACTCKCMQLDTTGNLVPAETVQP

Legend:
Test in all cases: pull-down
[1] = target: T1, Flag-WDR24 purified from HEK293T cells (UniProt Q96S15 1-790)
T1 sequence (looked up): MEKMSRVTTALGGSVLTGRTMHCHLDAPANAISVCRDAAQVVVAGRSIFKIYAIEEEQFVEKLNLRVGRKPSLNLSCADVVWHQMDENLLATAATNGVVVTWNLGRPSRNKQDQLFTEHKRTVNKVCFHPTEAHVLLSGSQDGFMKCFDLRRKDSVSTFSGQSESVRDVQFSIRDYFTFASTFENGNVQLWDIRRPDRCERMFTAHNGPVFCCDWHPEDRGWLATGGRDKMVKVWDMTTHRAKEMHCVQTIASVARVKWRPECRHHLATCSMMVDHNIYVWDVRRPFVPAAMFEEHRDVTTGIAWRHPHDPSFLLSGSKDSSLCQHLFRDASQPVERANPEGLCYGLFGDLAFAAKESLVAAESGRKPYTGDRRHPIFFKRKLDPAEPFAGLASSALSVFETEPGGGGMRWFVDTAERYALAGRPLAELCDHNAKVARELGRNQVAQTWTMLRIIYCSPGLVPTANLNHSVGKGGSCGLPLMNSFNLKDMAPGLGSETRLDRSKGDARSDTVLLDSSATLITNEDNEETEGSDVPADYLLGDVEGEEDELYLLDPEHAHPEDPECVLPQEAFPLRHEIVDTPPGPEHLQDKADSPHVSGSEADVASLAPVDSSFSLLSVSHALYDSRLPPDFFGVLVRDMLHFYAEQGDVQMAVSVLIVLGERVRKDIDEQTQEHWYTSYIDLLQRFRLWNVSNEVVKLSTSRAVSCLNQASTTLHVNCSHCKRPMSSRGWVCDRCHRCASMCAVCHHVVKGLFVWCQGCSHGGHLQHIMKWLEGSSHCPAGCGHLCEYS

[2] = target: T2, GST-WDR24 wild-type (full-length) (UniProt Q96S15 1-790)
T2 sequence (looked up): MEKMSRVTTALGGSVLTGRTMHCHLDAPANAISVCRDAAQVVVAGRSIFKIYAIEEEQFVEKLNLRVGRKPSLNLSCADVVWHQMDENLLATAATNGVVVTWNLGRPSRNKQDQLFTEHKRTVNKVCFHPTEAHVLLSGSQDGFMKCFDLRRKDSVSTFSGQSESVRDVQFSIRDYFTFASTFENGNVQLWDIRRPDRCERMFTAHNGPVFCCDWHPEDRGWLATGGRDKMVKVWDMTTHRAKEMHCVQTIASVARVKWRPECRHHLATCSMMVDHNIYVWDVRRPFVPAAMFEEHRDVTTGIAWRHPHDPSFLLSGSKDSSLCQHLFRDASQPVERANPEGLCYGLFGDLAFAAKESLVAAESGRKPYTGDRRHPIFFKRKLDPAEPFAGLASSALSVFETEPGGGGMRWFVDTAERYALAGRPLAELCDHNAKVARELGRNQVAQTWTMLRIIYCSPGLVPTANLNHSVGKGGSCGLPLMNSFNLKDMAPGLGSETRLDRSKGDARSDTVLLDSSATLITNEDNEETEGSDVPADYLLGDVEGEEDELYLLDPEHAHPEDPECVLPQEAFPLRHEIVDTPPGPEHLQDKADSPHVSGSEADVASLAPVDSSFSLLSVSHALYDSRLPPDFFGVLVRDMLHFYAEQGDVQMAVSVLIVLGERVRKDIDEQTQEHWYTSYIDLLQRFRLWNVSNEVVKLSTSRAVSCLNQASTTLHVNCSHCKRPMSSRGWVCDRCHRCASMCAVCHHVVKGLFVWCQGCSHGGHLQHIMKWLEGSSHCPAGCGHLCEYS

GST-Mios Ring (785–875) = target: B5
GST-WDR59 wild-type = target: T3, GST-WDR59 wild-type (UniProt Q6PJI9 1-974)
T3 sequence (looked up): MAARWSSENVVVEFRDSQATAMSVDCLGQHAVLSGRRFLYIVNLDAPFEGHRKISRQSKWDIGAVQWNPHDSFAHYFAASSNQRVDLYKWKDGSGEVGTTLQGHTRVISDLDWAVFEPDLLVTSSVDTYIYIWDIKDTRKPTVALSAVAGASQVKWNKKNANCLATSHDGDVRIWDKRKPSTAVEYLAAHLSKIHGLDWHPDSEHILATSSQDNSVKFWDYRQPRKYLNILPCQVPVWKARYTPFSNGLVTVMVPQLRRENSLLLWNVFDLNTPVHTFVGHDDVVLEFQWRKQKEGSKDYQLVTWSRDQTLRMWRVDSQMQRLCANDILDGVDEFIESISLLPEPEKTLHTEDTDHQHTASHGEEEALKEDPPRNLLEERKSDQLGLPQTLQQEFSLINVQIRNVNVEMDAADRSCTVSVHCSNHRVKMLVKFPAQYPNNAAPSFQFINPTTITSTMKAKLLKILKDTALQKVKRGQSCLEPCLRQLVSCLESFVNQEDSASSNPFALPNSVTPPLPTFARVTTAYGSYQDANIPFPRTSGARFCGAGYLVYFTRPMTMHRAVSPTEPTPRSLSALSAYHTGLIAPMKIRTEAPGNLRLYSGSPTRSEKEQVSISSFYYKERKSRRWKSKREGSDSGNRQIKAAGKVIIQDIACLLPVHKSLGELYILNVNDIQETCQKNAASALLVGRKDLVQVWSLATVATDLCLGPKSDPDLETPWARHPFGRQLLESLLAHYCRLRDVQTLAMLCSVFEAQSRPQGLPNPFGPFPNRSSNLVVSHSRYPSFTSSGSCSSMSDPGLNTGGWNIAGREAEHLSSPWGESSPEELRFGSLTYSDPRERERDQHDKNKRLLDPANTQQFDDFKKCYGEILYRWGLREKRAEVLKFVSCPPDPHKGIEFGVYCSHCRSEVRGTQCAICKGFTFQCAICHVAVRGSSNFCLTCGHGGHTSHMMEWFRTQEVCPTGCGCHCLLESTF

[3] = target: T4, Flag-WDR59 purified from HEK293T cells (UniProt Q6PJI9 1-974)
T4 sequence (looked up): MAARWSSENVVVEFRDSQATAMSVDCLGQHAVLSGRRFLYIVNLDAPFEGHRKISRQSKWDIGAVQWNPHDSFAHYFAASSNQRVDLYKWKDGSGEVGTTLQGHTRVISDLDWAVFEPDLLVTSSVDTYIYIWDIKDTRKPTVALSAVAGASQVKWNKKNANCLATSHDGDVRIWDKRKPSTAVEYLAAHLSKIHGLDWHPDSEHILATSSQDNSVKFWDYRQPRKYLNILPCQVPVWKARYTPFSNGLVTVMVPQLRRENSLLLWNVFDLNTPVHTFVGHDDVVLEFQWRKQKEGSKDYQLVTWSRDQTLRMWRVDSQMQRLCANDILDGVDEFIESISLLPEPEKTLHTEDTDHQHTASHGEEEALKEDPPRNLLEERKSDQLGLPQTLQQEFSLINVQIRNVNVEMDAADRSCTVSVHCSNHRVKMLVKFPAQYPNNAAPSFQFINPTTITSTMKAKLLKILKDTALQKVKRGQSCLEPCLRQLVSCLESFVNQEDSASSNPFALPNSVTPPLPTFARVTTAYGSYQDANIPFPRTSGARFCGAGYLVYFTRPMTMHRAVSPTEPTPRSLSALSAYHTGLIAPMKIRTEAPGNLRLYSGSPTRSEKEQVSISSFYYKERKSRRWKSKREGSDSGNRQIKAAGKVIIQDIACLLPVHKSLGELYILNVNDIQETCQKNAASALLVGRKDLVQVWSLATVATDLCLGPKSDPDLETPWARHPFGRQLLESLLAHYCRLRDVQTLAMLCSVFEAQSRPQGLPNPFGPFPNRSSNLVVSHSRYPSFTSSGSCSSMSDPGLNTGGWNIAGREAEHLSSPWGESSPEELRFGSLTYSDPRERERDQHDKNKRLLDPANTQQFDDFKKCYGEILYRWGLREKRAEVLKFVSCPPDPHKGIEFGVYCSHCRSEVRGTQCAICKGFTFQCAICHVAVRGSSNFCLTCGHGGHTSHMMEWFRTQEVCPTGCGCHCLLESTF

[4] = target: T1, Flag-WDR24 purified from HEK293T cells; remark: listed apart in the source

B1: His6-tag UBE2D3 (enzyme)
chain: not shown
binding result [1]: binds | binding result [2]: binds

B2: His-MBP-WDR59 Ring (924–974) (domain or fragment, UniProt Q6PJI9 924-974, looked up)
chain: {His-MBP}-CAICHVAVRGSSNFCLTCGHGGHTSHMMEWFRTQEVCPTGCGCHCLLESTF
modifications: cysteine pairing not given here; reading uncertain
binding result (GST-Mios Ring (785–875)): binds

Binder: B5
binding result [4]: binds | binding result [3]: binds

B6: Flag-Sestrin2 (pRK5-FLAG-Sestrin2) (natural protein, UniProt P58004 1-480, looked up)
chain: MIVADSECRAELKDYLRFAPGGVGDSGPGEEQRESRARRGPRGPSAFIPVEEVLREGAESLEQHLGLEALMSSGRVDNLAVVMGLHPDYFTSFWRLHYLLLHTDGPLASSWRHYIAIMAAARHQCSYLVGSHMAEFLQTGGDPEWLLGLHRAPEKLRKLSEINKLLAHRPWLITKEHIQALLKTGEHTWSLAELIQALVLLTHCHSLSSFVFGCGILPEGDADGSPAPQAPTPPSEQSSPPSRDPLNNSGGFESARDVEALMERMQQLQESLLRDEGTSQEEMESRFELEKSESLLVTPSADILEPSPHPDMLCFVEDPTFGYEDFTRRGAQAPPTFRAQDYTWEDHGYSLIQRLYPEGGQLLDEKFQAAYSLTYNTIAMHSGVDTSVLRRAIWNYIHCVFGIRYDDYDYGEVNQLLERNLKVYIKTVACYPEKTTRRMYNLFWRHFRHSEKVHVNLLLLEARMQAALLYALRAITRYMT
binding result [2]: binds

Other lines, results leading:

binding result (GST-WDR59 wild-type): binds
B3: Flag-Mios purified from HEK293T cells (natural protein, UniProt Q9NXC5 1-875, looked up)
chain: MSGTKPDILWAPHHVDRFVVCDSELSLYHVESTVNSELKAGSLRLSEDSAATLLSINSDTPYMKCVAWYLNYDPECLLAVGQANGRVVLTSLGQDHNSKFKDLIGKEFVPKHARQCNTLAWNPLDSNWLAAGLDKHRADFSVLIWDICSKYTPDIVPMEKVKLSAGETETTLLVTKPLYELGQNDACLSLCWLPRDQKLLLAGMHRNLAIFDLRNTSQKMFVNTKAVQGVTVDPYFHDRVASFYEGQVAIWDLRKFEKPVLTLTEQPKPLTKVAWCPTRTGLLATLTRDSNIIRLYDMQHTPTPIGDETEPTIIERSVQPCDNYIASFAWHPTSQNRMIVVTPNRTMSDFTVFERISLAWSPITSLMWACGRHLYECTEEENDNSLEKDIATKMRLRALSRYGLDTEQVWRNHILAGNEDPQLKSLWYTLHFMKQYTEDMDQKSPGNKGSLVYAGIKSIVKSSLGMVESSRHNWSGLDKQSDIQNLNEERILALQLCGWIKKGTDVDVGPFLNSLVQEGEWERAAAVALFNLDIRRAIQILNEGASSEKGDLNLNVVAMALSGYTDEKNSLWREMCSTLRLQLNNPYLCVMFAFLTSETGSYDGVLYENKVAVRDRVAFACKFLSDTQLNRYIEKLTNEMKEAGNLEGILLTGLTKDGVDLMESYVDRTGDVQTASYCMLQGSPLDVLKDERVQYWIENYRNLLDAWRFWHKRAEFDIHRSKLDPSSKPLAQVFVSCNFCGKSISYSCSAVPHQGRGFSQYGVSGSPTKSKVTSCPGCRKPLPRCALCLINMGTPVSSCPGGTKSDEKVDLSKDKKLAQFNNWFTWCHNCRHGGHAGHMLSWFRDHAECPVSACTCKCMQLDTTGNLVPAETVQP

binding result [3]: binds
B4: GST-fusion protein of full-length wild-type Mios (natural protein, UniProt Q9NXC5 1-875, looked up)
chain: MSGTKPDILWAPHHVDRFVVCDSELSLYHVESTVNSELKAGSLRLSEDSAATLLSINSDTPYMKCVAWYLNYDPECLLAVGQANGRVVLTSLGQDHNSKFKDLIGKEFVPKHARQCNTLAWNPLDSNWLAAGLDKHRADFSVLIWDICSKYTPDIVPMEKVKLSAGETETTLLVTKPLYELGQNDACLSLCWLPRDQKLLLAGMHRNLAIFDLRNTSQKMFVNTKAVQGVTVDPYFHDRVASFYEGQVAIWDLRKFEKPVLTLTEQPKPLTKVAWCPTRTGLLATLTRDSNIIRLYDMQHTPTPIGDETEPTIIERSVQPCDNYIASFAWHPTSQNRMIVVTPNRTMSDFTVFERISLAWSPITSLMWACGRHLYECTEEENDNSLEKDIATKMRLRALSRYGLDTEQVWRNHILAGNEDPQLKSLWYTLHFMKQYTEDMDQKSPGNKGSLVYAGIKSIVKSSLGMVESSRHNWSGLDKQSDIQNLNEERILALQLCGWIKKGTDVDVGPFLNSLVQEGEWERAAAVALFNLDIRRAIQILNEGASSEKGDLNLNVVAMALSGYTDEKNSLWREMCSTLRLQLNNPYLCVMFAFLTSETGSYDGVLYENKVAVRDRVAFACKFLSDTQLNRYIEKLTNEMKEAGNLEGILLTGLTKDGVDLMESYVDRTGDVQTASYCMLQGSPLDVLKDERVQYWIENYRNLLDAWRFWHKRAEFDIHRSKLDPSSKPLAQVFVSCNFCGKSISYSCSAVPHQGRGFSQYGVSGSPTKSKVTSCPGCRKPLPRCALCLINMGTPVSSCPGGTKSDEKVDLSKDKKLAQFNNWFTWCHNCRHGGHAGHMLSWFRDHAECPVSACTCKCMQLDTTGNLVPAETVQP

binding result (GST-Mios Ring (785–875)): binds
Binder: {His-MBP}-CAVCHHVVKGLFVWCQGCSHGGHLQHIMKWLEGSSHCPAGCGHLCEYS (domain or fragment, UniProt Q96S15 743-790, looked up, cysteine pairing not given here; reading uncertain) [His-MBP-WDR24 Ring (743–790)]
